Data from patent US20240392024A1 (SHANGHAI CELGEN BIO PHARMACEUTICAL, published 2024).

T1: human TNFR2 on the cell membrane (human, UniProt P20333 23-461)
T1 construct: whole, on cells; One molecule for all cell formats; also called TNFR2-CHO cells; CHO-TNFR2
T1 sequence (looked up): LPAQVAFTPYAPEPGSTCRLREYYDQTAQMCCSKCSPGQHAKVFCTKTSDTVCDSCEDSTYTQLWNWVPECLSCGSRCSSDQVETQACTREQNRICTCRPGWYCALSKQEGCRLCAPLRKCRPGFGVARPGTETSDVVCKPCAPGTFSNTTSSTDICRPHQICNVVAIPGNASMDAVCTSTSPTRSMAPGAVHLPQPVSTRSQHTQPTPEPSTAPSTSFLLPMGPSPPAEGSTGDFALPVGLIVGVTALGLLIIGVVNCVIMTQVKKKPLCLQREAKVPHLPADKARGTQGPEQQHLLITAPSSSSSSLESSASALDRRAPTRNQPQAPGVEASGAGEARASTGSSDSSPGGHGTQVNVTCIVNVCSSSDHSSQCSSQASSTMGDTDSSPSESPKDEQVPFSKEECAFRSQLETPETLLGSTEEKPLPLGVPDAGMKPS

T2: TNFR2-His (Sino Biological, 10417-H08H, NP_001057.1 Met1-Asp257, with multi-histidine tag expressed on … (human, UniProt P20333 23-257))
T2 construct: range 1-257; Bought protein; also called recombinant human TNFR2 protein; TNFR2-His antigen; not shown: C-terminal multi-histidine tag
T2 sequence (looked up): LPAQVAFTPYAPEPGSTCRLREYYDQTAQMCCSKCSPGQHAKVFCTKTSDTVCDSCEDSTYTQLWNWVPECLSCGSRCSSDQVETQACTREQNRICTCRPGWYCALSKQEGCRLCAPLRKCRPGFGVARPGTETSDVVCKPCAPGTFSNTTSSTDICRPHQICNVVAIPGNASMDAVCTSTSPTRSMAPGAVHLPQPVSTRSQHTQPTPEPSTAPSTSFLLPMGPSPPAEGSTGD

T3: WT
T3 construct: also called T cells of wild-type (WT) mice; mouse TNFR2 on the cell membrane
T3 chain: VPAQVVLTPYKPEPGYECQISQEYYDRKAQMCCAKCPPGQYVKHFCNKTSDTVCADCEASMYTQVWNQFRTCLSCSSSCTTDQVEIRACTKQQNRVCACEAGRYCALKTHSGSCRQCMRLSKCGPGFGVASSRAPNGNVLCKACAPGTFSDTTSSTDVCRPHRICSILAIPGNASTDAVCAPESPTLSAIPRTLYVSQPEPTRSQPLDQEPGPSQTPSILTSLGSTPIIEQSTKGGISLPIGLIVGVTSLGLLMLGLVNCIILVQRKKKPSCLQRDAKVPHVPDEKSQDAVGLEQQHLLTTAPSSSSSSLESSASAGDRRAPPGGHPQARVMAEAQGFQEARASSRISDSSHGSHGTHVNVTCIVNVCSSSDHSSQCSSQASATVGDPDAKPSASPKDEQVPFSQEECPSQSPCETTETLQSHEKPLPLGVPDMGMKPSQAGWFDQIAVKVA


Tests used:
[1] = biological target: T1, human TNFR2 on the cell membrane; assay: flow cytometry on human PBMC, CD3+ T cells
Protocol: Purified anti-human TNFR2 human-mouse chimeric monoclonal antibodies were co-cultured with PBMC cells (Oricells) and stained. The binding of the antibody was analyzed by flow cytometry. The specific steps are as follows: PBMC cells (Oricells) were counted, centrifuged, resuspended, then added to a 96-deep well plate, and the supernatant was discarded. Diluted anti-TNFR2 monoclonal antibodies were added.

[2] = biological target: T2, TNFR2-His (Sino Biological, 10417-H08H, …); assay: ELISA, coated TNFR2-His
In short: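 EC50 values come from antibody dilution series tested by ELISA. Plates were coated with recombinant human TNFR2 bearing a C-terminal His tag and blocked before the serially diluted antibodies were added. Binding was detected with an enzyme-labelled anti-IgG secondary antibody, TMB development and a microplate reader.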

[3] = biological target: T1, human TNFR2 on the cell membrane; assay: flow cytometry on Jurkat-TNFR2 cells
Protocol: Purified human-mouse monoclonal antibodies against TNFR2 were co-cultured with TNFR2 positive Jurkat cells (Jurkat cells were transfected with pcDNA3.4-TNFR2 plasmid using conventional methods, and after screening, stable and highly expressed TNFR2 Jurkat cell lines were obtained) and stained. The antibody binding intensity was analyzed by flow cytometry. The specific steps are as follows: Jurkat-TNFR2 was counted, centrifuged, resuspended, then added to a 96-deep well plate, and the supernatant was discarded. The anti-TNFR2 antibody was gradient diluted, and added to the 96-deep well plate, After incubation and wash, the secondary antibody FITC-anti-human IgG (Abcam: 6854) was added, and the samples were detected using Beckman CytoFLEX.

[4] = biological target: T1, human TNFR2 on the cell membrane; assay: flow cytometry on ConA-stimulated spleen cells of hTNFR2-KI mice, mCD3+ T cells
Protocol: (§1) The cells were stained again with Cy-3 anti-human IgG and FITC anti-mCD3 (BD, 555274) after washing, under the same incubation conditions. After washing, the detection was performed.

WT = biological target: T3, WT; assay: flow cytometry on ConA-stimulated spleen cells of WT mice, mCD3+ T cells
Protocol: as §1

[5] = biological target: T2, TNFR2-His (Sino Biological, 10417-H08H, …); assay: BLI, antibody captured on AHC probe, TNFR2 in solution
Protocol: The GATOR (ProbeLife) detection instrument and AHC (Pall, 185064), Human antibody Capture probe were used to detect the dissociation constant (Kd) of human-mouse chimeric TNFR2 monoclonal antibody.
The human-mouse chimeric TNFR2 monoclonal antibodies were diluted to 50 nM in binding buffer (Q buffer [PBS (10 mM PH7.4)+0.02% Tween 20+0.2% BSA). The recombinant human TNFR2 protein was diluted in Q buffer with a 2-fold gradient starting from the highest concentration of 100 nM. The kinetic association assay was conducted by placing the antibody capture sensor in the continuously diluted antigen solutions mentioned above. The Octet Data Acquisition software was pened and the New Kinetics Experiment-Basic Kinetics mode was selected.

percent of cells in the upper right quadrant (Q1-UR, CD3+ and anti-human IgG Fc+) [1] | EC50 [2] | EC50 [3] | percent of cells in the upper right quadrant (Q2-UR, mCD3+ and anti-hIgG+) [4] | binding result (WT) | percent of cells in the upper right quadrant (Q2-UR, mCD3+ and anti-hIgG+) (WT) | Kd [5] | koff [5] | kon [5] | Binder
42.3% | 0.278 nM | 0.0357 µg/mL | 36% | no binding | 1.04% | 9.38 nM | 0.00761 s⁻¹ | 811000 M⁻¹ s⁻¹ | human-mouse chimeric TNFR2 monoclonal antibody 27F6-hFc (antibody, V domains shown, Mouse V regions of clone 27F6 with human constant regions) VH: EVQLQQSGTVLARPGASVKMSCKTSGYTFTSYWMHWVKQRPGQGLEWIGTIYPGNSDTSYNQKFKGKAKLTAVTSASTAYMELNSLTNEDSAVFYCTRENLLLRSYFFDYWGQGTTLTVSS VL: DIVMTQSPASLAVSLGQRATISCKASQSVDYDGDSYLNWYQQKPGQPPKLLIYAASNLPSGIPARFSGSGSGTDFTLNIHPVEEEDAATYYCQQSNEDPRTFGGGTKLEIK
45.6% | 0.265 nM | 0.0123 µg/mL | 46.2% | no binding | 0.83% | 3.9 nM | 0.00304 s⁻¹ | 780000 M⁻¹ s⁻¹ | human-mouse chimeric TNFR2 monoclonal antibody 12E12-hFc (antibody, V domains shown, Mouse V regions of clone 12E12 with human constant regions; also called human-mouse chimeric 12E12 antibody) VH: EVQLQQSGAELVKPGASVKLSCTVSGFNIKDFYIHWVKQRPEQGLEWIGRVDPEDGNTEYAPNFQDRATMTTDTSSNTAYLQLSSLTSVDTAVYYCSTWDGFSYFDYWGLGTTLTVSS VL: QAVVTQESALTTSPGETVTLTCRSSTGPVTTNNYANWVQEKPDHLFTGLIGGTNDRAPGVPARFSGSLIGDKTALTITGTQTEDEAVYFCALWYRNHWVFGGGTKLTVL
